Laboratory results taken from patent publication US20260234290, “Antibodies to Stat3 Decoy Oligonucleotide” (The Regents of the University of California, published 2026).

How the values were obtained:
4E4 Fab = 4E4 Fab (UniProt P01764;A0A075B6I4 SEQ:1-116,SEQ:1-110); test: BLI; 2 uM Fab; RT; described as weak binding; settings: myc tag; Ni-NTA purified from E. coli BL21(DE3) periplasm; label: biotin; cyclic 15-mer double-stranded decoy
Protocol: (§1) All buffers were filter sterilized with […] filters prior to preparing samples. Black 384 well microplates were used to set up BLI plates and streptavidin tips were purchased by Sartorius. Kinetic constants of Fabs were determined by Octet RED384 system with continuous shaking at 1000 rpm in RT. Prior to the experiment, biological tips (model name) were presoaked in buffer to allow for equilibration for 1 hour. Data were analyzed using 1:1 interaction model on the ForteBio data analysis software 12.0.

SP1-B3 Fab = SP1-B3 Fab (UniProt A0A0B4J1U7;A0A087WSX0 SEQ:1-120,SEQ:1-115); test: BLI; 2 uM Fab; CS3D on streptavidin tips; RT; RAPID-sorted clone; settings: myc tag; Ni-NTA purified from E. coli BL21(DE3) periplasm; label: biotin; cyclic 15-mer double-stranded decoy
SP1-B3 Fab, sequence (A0A0B4J1U7 other isoform, or with tags, fused parts or gaps, chain 1 of 2): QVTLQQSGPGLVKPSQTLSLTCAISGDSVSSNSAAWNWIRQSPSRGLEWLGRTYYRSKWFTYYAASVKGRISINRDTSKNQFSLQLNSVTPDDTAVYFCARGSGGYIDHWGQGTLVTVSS
SP1-B3 Fab, sequence (A0A087WSX0 other isoform, or with tags, fused parts or gaps, chain 2 of 2): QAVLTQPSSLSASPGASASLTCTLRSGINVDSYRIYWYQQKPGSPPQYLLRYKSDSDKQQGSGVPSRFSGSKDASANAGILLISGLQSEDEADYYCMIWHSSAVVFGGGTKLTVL
Protocol: as §1

4E4 Fab, sequence (P01764 other isoform, or with tags, fused parts or gaps, chain 1 of 2): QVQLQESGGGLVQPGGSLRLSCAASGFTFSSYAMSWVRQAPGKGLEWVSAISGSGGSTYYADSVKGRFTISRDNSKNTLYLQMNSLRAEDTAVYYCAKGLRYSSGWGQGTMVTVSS
4E4 Fab, sequence (A0A075B6I4 other isoform, or with tags, fused parts or gaps, chain 2 of 2): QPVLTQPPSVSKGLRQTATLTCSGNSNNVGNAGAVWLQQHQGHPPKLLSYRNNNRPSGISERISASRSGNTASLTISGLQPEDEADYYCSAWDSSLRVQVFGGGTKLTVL

B1: CS3D (cyclic STAT3 decoy) (dsDNA)
DNA 1: CATTTCCCGTAAATC
DNA 2: GATTTACGGGAAATG
koff (4E4 Fab): 0.111 s⁻¹ | koff (SP1-B3 Fab): 0.0211 s⁻¹
